Measurements reported in patent US20050186649 (published 2005).
Substitutions are numbered along the chain they refer to.

B1: SPI11 (protein)
chain: MHSFCAFKAETGPCRARFDRWFFNIFTRQCEEFIYGGCEGNQNRFESLEECKKMCTRD
B2: SPI43 (protein)
chain: B1 chain with A16G, R17K, E32S, I34H, E39K
B3: SPI54 (protein)
chain: B1 chain with E10D, T11S, E31T, E32R, I34P, E39G
B4: SPI22 (protein)
chain: B1 chain with E10D, T11G, R15K, A16G, R17K, D19P, W21F
B5: SPI47 (protein)
chain: B1 chain with E10D, T11A, R17K, D19E, W21F
B6: SPI23 (protein)
chain: B1 chain with T11G, R17K, D19Q
B7: human plasmin (protein)
chain: KVYLSECKTGNGKNYRGTMSKTKNGITCQKWSSTSPHRPRFSPATHPSEGLEENYCRNPDNDPQGPWCYTTDPEKRYDYCDILECEEECMHCSGENYDGKISKTMSGLECQAWDSQSPHAHGYIPSKFPNKNLKKNYCRNPDRELRPWCFTTDPNKRWELCDIPRCTTPPPSSGPTYQCLKGTGENYRGNVAVTVSGHTCQHWSAQTPHTHNRTPENFPCKNLDENYCRNPDGKRAPWCHTTNSQVRWEYCKIPSCDSSPVSTEQLAPTAPPELTPVVQDCYHGDGQSYRGTSSTTTTGKKCQSWSSMTPHRHQKTPENYPNAGLTMNYCRNPDADKGPWCFTTDPSVRWEYCNLKKCSGTEASVVAPPPVVLLPDVETPSEEDCMFGNGKGYRGKRATTVTGTPCQDWAAQEPHRHSIFTPETNPRAGLEKNYCRNPDGDVGGPWCYTTNPRKLYDYCDVPQCAAPSFDCGKPQVEPKKCPGRVVGGCVAHPHSWPWQVSLRTRFGMHFCGGTLISPEWVLTAAHCLEKSPRPSSYKVILGAHQEVNLEPHVQEIEVSRLFLEPTRKDIALLKLSSPAVITDKVIPACLPSPNYVVADRTECFITGWGETQGTFGAGLLKEAQLPVIENKVCNRYEFLNGRVQSTELCAGHLAGGTDSCQGDSGGPLVCFEKDKYILQGVTSWGLGCARPNKPGVYVRVSRFVTWIEGVMRNN
B8: QS4 (protein)
chain: MHSFCAFKADDGPCKARFERFFFNIFTRQCEQFYYGGCDGNQNRFESLEECKKMCTRD
B9: SPI51 (protein)
chain: B8 chain with D11A, K15R, R17K, E31T, Q32A, Y34F, D39G

Key:
human plasmin [1] = target: B7
human plasmin [2] = target: B7
BPTI = BPTI (Bos taurus)

Row | Binder | Kd (human plasmin [1]) [nM] | Ki (human plasmin [2]) [nM] | Kd (BPTI) [nM]
1 | B1 | 0.088 | 0.088 | 
2 | B2 | > 4 |  | 
3 | B3 | > 4 |  | 
4 | B4 | > 2 |  | 
5 | B5 | ~0.8 |  | 
6 | B6 | ~0.5 |  | 
7 | B7 |  |  | 0.3
8 | B8 | 2 |  | 
9 | B9 | ~0.5 |  | 
